The values that follow come from article PMC7408900, “Cancer-Associated Substitutions in RNA Recognition Motifs of PUF60 and U2AF65 Reveal Residues Required for Correct Folding and 3′ Splice-Site Selection”.

Data set [1] concerns the target T1, U2AF65 E162K (human, UniProt P26368 1-475, E162K). As to the kind of experiment: EMSA; Kd only in figure; Hill 1.84; binding not apparently reduced; EMSA: 40 mM Tris pH 8.0, 5 mM MgCl2, 0.25 ug/uL heparin, 0.01% Triton, 1 mM DTT, room temperature 20 min; 6% native PAGE in 0.5x TBE at 4 C; 15-17 nM biotin-RNA. The note with it: protein: recombinant; tags: N-terminal GST (pGEX6P); label: 5' biotin; single strand. In general terms: In EMSA bound probe runs differently from free probe, usually more slowly.

For the next data set, the target named is PUF60 H169Y (human, UniProt Q9UHX1 1-559, H169Y). The data set is described as follows: EMSA; higher affinity than cr probe; approximate Kd only in figure; Hill 2.4; EMSA: 40 mM Tris pH 8.0, 5 mM MgCl2, 0.25 ug/uL heparin, 0.01% Triton, 1 mM DTT, room temperature 20 min; 6% native PAGE in 0.5x TBE at 4 C; 15-17 nM biotin-RNA. The following applies: protein: recombinant; tags: 2xHis-lipoyl-TEV, removed by TEV; label: 5' biotin; single strand.
PUF60 H169Y, sequence (Q9UHX1 whole entry H169Y): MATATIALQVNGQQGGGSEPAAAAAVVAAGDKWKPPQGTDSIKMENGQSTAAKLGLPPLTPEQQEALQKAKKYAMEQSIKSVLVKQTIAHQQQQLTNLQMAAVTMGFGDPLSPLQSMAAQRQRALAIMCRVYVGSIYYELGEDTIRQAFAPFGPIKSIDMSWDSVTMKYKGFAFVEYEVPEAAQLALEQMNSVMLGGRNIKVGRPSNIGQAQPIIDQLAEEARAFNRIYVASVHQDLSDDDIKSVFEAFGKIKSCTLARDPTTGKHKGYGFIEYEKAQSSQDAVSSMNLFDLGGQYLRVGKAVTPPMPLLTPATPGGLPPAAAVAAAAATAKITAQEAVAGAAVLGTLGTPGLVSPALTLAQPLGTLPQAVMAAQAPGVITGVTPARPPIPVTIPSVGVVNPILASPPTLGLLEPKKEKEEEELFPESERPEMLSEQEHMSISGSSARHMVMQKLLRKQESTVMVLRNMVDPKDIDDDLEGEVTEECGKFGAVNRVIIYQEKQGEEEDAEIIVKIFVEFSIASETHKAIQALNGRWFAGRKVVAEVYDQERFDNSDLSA

Data set [2] addresses T1, U2AF65 E162K. As to the kind of experiment: EMSA; Kd only in figure; Hill 2.23; binding not apparently reduced; EMSA: 40 mM Tris pH 8.0, 5 mM MgCl2, 0.25 ug/uL heparin, 0.01% Triton, 1 mM DTT, room temperature 20 min; 6% native PAGE in 0.5x TBE at 4 C; 15-17 nM biotin-RNA. The note with it: protein: recombinant; tags: N-terminal GST (pGEX6P); label: 5' biotin; single strand.

T1 sequence (P26368 whole entry E162K, one chain of several): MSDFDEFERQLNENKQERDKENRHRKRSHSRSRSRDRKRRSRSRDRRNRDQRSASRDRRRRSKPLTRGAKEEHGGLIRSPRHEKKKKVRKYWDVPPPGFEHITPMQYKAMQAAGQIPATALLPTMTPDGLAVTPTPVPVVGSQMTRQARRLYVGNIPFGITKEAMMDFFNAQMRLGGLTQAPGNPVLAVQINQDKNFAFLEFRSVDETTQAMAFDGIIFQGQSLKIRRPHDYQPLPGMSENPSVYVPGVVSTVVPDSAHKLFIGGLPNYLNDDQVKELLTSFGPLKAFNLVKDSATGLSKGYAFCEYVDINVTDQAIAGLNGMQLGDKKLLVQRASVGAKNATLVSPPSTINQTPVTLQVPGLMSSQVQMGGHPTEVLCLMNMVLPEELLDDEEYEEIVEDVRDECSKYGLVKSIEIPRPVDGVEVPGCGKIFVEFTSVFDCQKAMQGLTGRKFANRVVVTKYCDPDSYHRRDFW

In the case of CUUUUUGUUUCCUUUUUUUUUUAAUUUAAAGG (ssRNA) [UBE2F-cr3'ss-32], the binding result with U2AF65 E162K [1] is recorded as “binds”.
UUUUUUUGUUUUGUUUUGUGUUUUUUGAUAGA (ssRNA) [UBE2F-can3'ss-32]: the binding result in the data set with PUF60 H169Y and with U2AF65 E162K [2] was “binds” throughout.
